For the assay, the target named is T1, 6xHis-tagged TssI2 (purified) (Vibrio fluvialis 85003, UniProt A0A1W6EUI3 1-1012).
T1 sequence: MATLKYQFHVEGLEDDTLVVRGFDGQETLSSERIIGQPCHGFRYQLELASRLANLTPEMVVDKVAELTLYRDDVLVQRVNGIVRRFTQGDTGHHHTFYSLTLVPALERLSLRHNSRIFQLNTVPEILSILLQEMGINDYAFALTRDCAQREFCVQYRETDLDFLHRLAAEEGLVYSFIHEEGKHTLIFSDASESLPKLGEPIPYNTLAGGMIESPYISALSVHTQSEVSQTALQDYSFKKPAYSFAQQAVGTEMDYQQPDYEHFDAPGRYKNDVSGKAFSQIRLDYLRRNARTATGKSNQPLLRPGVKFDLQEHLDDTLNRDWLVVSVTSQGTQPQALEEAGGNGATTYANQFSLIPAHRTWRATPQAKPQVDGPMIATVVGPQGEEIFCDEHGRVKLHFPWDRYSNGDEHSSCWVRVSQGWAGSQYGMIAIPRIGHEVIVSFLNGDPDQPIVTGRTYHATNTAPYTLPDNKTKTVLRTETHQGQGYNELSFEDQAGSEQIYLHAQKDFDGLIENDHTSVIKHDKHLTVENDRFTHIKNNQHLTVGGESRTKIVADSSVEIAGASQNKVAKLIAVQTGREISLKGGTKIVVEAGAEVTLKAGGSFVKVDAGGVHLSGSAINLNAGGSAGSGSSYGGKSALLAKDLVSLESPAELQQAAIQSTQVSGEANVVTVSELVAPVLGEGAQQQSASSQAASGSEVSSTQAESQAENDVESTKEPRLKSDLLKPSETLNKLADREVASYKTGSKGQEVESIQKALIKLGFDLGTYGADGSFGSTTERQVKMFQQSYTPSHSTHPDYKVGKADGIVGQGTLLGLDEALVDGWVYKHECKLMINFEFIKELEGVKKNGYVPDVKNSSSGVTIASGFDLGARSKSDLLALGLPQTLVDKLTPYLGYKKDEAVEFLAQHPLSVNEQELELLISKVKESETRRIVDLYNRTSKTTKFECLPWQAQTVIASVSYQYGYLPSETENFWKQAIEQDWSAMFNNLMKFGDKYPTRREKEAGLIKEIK
Briefly: ITC. Background: In ITC the heat of successive injections is recorded.

B1: 6xHis-tagged TsiI2^19-127 (purified) (domain or fragment)
chain: FPTNEVYAYLDITSFNSSLIQKAARGQKHFSDLKIPNPVISKDTILIESEYWKYEMQFVKEDDSGIHVCFVDKAKWGTYDTQTPMIIRKYADEYVAIKMNSDVCEDFAK
On to B1, for which the Kd (usually the concentration at which binding is half-saturated) was 1.07 nM.

For the origin of these results see paper PMC9620997 (Gut Microbes, 2022).
